Measurements: patent publication US9657062B2, “Ghrelin analogues” (Zealand Pharma A/S, priority 2012, dated 2017)
[ ]: non-standard residue; d: D form. The star is where a group is joined. Octyl = CCCCCCCC*

B1: H-PS-S(O-octyl)-FLSPEHQRVQRKESKKPPAKLQPR-NH2 (peptide)
peptide: H-PSS(Octyl)FLSPEHQRVQRKESKKPPAKLQPR-NH2
SMILES: CCCCCCCCOC[C@H](NC(=O)[C@H](CO)NC(=O)[C@@H]1CCCN1)C(=O)N[C@@H](Cc1ccccc1)C(=O)N[C@@H](CC(C)C)C(=O)N[C@@H](CO)C(=O)N1CCC[C@H]1C(=O)N[C@@H](CCC(=O)O)C(=O)N[C@@H](Cc1c[nH]cn1)C(=O)N[C@@H](CCC(N)=O)C(=O)N[C@@H](CCCNC(=N)N)C(=O)N[C@H](C(=O)N[C@@H](CCC(N)=O)C(=O)N[C@@H](CCCNC(=N)N)C(=O)N[C@@H](CCCCN)C(=O)N[C@@H](CCC(=O)O)C(=O)N[C@@H](CO)C(=O)N[C@@H](CCCCN)C(=O)N[C@@H](CCCCN)C(=O)N1CCC[C@H]1C(=O)N1CCC[C@H]1C(=O)N[C@@H](C)C(=O)N[C@@H](CCCCN)C(=O)N[C@@H](CC(C)C)C(=O)N[C@@H](CCC(N)=O)C(=O)N1CCC[C@H]1C(=O)N[C@@H](CCCNC(=N)N)C(N)=O)C(C)C
B2: H-PS-S(O-octyl)-FLSPEHQRVQQRKESKKPPA-NH2 (peptide)
peptide: H-PSS(Octyl)FLSPEHQRVQQRKESKKPPA-NH2
SMILES: CCCCCCCCOC[C@H](NC(=O)[C@H](CO)NC(=O)[C@@H]1CCCN1)C(=O)N[C@@H](Cc1ccccc1)C(=O)N[C@@H](CC(C)C)C(=O)N[C@@H](CO)C(=O)N1CCC[C@H]1C(=O)N[C@@H](CCC(=O)O)C(=O)N[C@@H](Cc1c[nH]cn1)C(=O)N[C@@H](CCC(N)=O)C(=O)N[C@@H](CCCNC(=N)N)C(=O)N[C@H](C(=O)N[C@@H](CCC(N)=O)C(=O)N[C@@H](CCC(N)=O)C(=O)N[C@@H](CCCNC(=N)N)C(=O)N[C@@H](CCCCN)C(=O)N[C@@H](CCC(=O)O)C(=O)N[C@@H](CO)C(=O)N[C@@H](CCCCN)C(=O)N[C@@H](CCCCN)C(=O)N1CCC[C@H]1C(=O)N1CCC[C@H]1C(=O)N[C@@H](C)C(N)=O)C(C)C
B3: H-PS-S(O-octyl)-FLSPEHQRVQQRKES-NH2 (peptide)
peptide: H-PSS(Octyl)FLSPEHQRVQQRKES-NH2
SMILES: CCCCCCCCOC[C@H](NC(=O)[C@H](CO)NC(=O)[C@@H]1CCCN1)C(=O)N[C@@H](Cc1ccccc1)C(=O)N[C@@H](CC(C)C)C(=O)N[C@@H](CO)C(=O)N1CCC[C@H]1C(=O)N[C@@H](CCC(=O)O)C(=O)N[C@@H](Cc1c[nH]cn1)C(=O)N[C@@H](CCC(N)=O)C(=O)N[C@@H](CCCNC(=N)N)C(=O)N[C@H](C(=O)N[C@@H](CCC(N)=O)C(=O)N[C@@H](CCC(N)=O)C(=O)N[C@@H](CCCNC(=N)N)C(=O)N[C@@H](CCCCN)C(=O)N[C@@H](CCC(=O)O)C(=O)N[C@@H](CO)C(N)=O)C(C)C

Biological target: human growth hormone secretagogue receptor type 1a (human, UniProt Q92847 1-366)
Sequence (Q92847 whole entry): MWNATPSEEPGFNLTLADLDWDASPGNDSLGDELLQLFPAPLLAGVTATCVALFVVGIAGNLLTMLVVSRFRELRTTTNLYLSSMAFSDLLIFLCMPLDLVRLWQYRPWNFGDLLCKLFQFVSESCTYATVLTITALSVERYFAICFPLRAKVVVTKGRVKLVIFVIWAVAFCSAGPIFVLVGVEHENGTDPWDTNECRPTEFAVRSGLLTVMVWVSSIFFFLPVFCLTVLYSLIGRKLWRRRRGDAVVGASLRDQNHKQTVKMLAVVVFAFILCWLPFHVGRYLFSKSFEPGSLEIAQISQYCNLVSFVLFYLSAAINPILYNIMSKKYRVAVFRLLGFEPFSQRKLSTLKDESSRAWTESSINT
Assay: cell-based or functional assay

Binder	EC50 (nM); Ca2+ induction in HEK293 cells stably expressing the human ghrelin receptor
B1	0.33 nM
B2	0.231 nM
B3	0.221 nM
H-PS[NH‑CH(n-C10H21)‑C(O)]FLSPEHQRVQQRKESKKPPAKLQPR-NH2 [H-PS-[NH-CH(n-C10H21)-C(O)]-FLSPEHQRVQQRKESKKPPAKLQPR-NH2]	0.333 nM
H-PS[NH‑CH(n-C10H21)‑C(O)]FLSPEHQRVQRKESKKPPAKLQPR-NH2 [H-PS-[NH-CH(n-C10H21)-C(O)]-FLSPEHQRVQRKESKKPPAKLQPR-NH2]	0.23 nM
